Test results published in publication PMC1182371.

Molecular target: KLF15-ZF-GST (human) (UniProt Q9UIH9)
Experiment: DNase I footprinting
Conditions: EMSA: 4 mM HEPES, 5 mM EGTA, 100 mM KCl, 0.25 mM ZnCl2, 0.02% NP40, 0.1 M DTT, 4% glycerol, 90-120 min on ice, pH not stated, footprinting: same buffer

Sequence of KLF15-ZF-GST (human) (Q9UIH9 294-416): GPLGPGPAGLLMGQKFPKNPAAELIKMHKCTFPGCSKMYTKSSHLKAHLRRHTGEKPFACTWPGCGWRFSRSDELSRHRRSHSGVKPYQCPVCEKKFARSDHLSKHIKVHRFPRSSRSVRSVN

With “CGCCGGCGGCGCGAACCCGGGGATGCTTCTGAGGCCGGAGCTCAGCCACACGGGGCTCCGGCTGGACGACTCGTGGCTCCAACTCCCCCCCCAGGCCCTTATGAAGTGACCTCCCCTCCCTAAGCTCCCGGCTGAATCAGCACCTCGGAGATTGGGGGCGTTATTAATCATATTAATCCTCACTGCTGCAACGAGGGGCTTAATTGGCTTCCAGGTGGGGCCAAGGTGACTCCAGGTAGAAGGCTGTGGTCGGGGAGAAGGCGGGGCGTGCTGGGGACCCTGGGAAAGAGCAGAGGCCT (double strand) [bovine Rho -225 to +70]” the binding was “binds”.
“GAAGTGACCTCCCCTCCCTAAGCTCCCGGCTGAATCAGCACCTCGGAGATTGGGGGCGTTATTAATCATATTAATCCTCACTGCTGCAACGAGGGGCTTAATTGGCTTCCAGGTGGGGCCAAGGTGACTCCAGGTAGAAGGCTGTGGTCGGGGAGAAGGCGGGGCGTGCTGGGGACCCTGGGAAAGAGCAGAGGCCTGCCCCCAACTCCCCTGTCCCCCTCTGGCATCTCAGCTGATGGCCCTGGCCTGGCATTGGGACCCCTAGCTCTAGGCCCACTTCCCTCT (double strand) [bovine Rho -315 to -31]” was tested, and the binding was “binds”.
